Results on 139 substances are retold here after the supplement of paper PMC12042874.

± gives the uncertainty stated by the source.

This series is described as follows: amyloid nucleation score (Sup35N fusion, yeast selection) (log enrichment); library NNK2; higher = more nucleation; inactive = no reads after selection. In outline:
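For the nucleation score, DiMSum gave the log enrichment of output over input reads, centred on the mode score of non-aggregating sequences. Psi-negative yeast expressing Sup35N fused to peptides of 20 random codons were induced with 100 μM copper sulfate for 24 hours and grown 7 days at 30°C on medium lacking adenine and uracil. Input and output plasmid inserts were Illumina-sequenced, and sequences with under 100 input reads were excluded.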
On to PIIFSLSTFSCNVYEIRSNG, for which the amyloid nucleation score is 3.57 ± 0.093.

PIIIDDLMYLGDVDLTMFGE yielded an amyloid nucleation score of -0.234 ± 0.74.

In turn, PILYGSNGVRFV had an amyloid nucleation score of -1.05 ± 1.1.

As for PKSLCYSTLTRGWCQM, the amyloid nucleation score was -0.418 ± 1.

PLIYLSSFYIDCHLWSSFGV returned an amyloid nucleation score of 6.806 ± 0.035.

Regarding PLNSMNVAESESYGLSQMS, the amyloid nucleation score is 1.28 ± 0.37.

Regarding PLTNSNRPGMKHLSSKQSSV, the amyloid nucleation score worked out at 0.138 ± 0.41.

For the substance PLVTWHFS, the amyloid nucleation score was 0.413 ± 0.31.

Take PLWCSAGALLYWYKYPWFWL: the amyloid nucleation score was -0.332 ± 0.63.

As to PLYPLCSHPYVGFVTHTISR, the amyloid nucleation score was -0.053 ± 1.

Turning to PMMYQRLCIMFFCSTITLMI, the amyloid nucleation score turned out to be 1.92 ± 0.14.

On to PMSDMFYFFGFECSRLIMSN, for which the amyloid nucleation score result was “inactive”.

PNLIGLLVGLRVNSWSVAIT gave an amyloid nucleation score of 0.632 ± 0.21.

For the substance PNPRPVSICNRLYPF, the amyloid nucleation score was -0.246 ± 0.38.

As for PNQISNA, the amyloid nucleation score is -0.47 ± 1.1.

The substance PPDNVSNWYVVKWAGRMMQK had an amyloid nucleation score of 4.13 ± 0.044.

Substance PPRGFFVAWIVDFRGAGLMG came in with an amyloid nucleation score of -0.743 ± 0.48.

PPVLLISKSSFMQLGCSLST had an amyloid nucleation score of -0.587 ± 1.

Turning to PQWWRNLLSKSGTNAADCYL, the amyloid nucleation score is 0.577 ± 0.57.

Substance PRILLQSLRI came in with an amyloid nucleation score of 2.47 ± 0.064.

Take PRRVDRW: the amyloid nucleation score was found to be 0.339 ± 0.2.

PRSSAVYIRTLRVSQKVDPM: the amyloid nucleation score amounted to 2.64 ± 0.11.

As to PRVVGGFANISMWLATGTPF, the amyloid nucleation score was 2.94 ± 0.093.

PRVVYNFLNWGIGFYFVVDD returned an amyloid nucleation score of 7.161 ± 0.027.

As to PSCRWKLHEMSTSSVQFWMK, the amyloid nucleation score stood at 5.59 ± 0.064.

Substance PSFILIFNGCKWVPYASKCG showed an amyloid nucleation score of 8.916 ± 0.021.

Turning to PSGPSHIYGWYDSFHNCSYN, the amyloid nucleation score was -0.369 ± 0.49.

Consider PSHFVGFCAHSYDVGVFMWV, for which the amyloid nucleation score worked out at 0.077 ± 0.42.

With PSLAKRGVSVCLAKANSRTI, the amyloid nucleation score was -0.388 ± 1.

In turn, PSLMHSHLESNNTSA displayed an amyloid nucleation score of -0.21 ± 0.44.

For PSSFNSRFFCLVTNGWQYMS, the amyloid nucleation score entry is “inactive”.

Turning to PSSGPPNESAMSPITYSGEG, the amyloid nucleation score is -0.684 ± 1.1.

On to PSTIGQYITR, for which the amyloid nucleation score is -0.119 ± 0.49.

Consider PSTYWRMILKFRVCEIVHGT, for which the amyloid nucleation score is 0.231 ± 0.21.

In turn, PSWHI showed an amyloid nucleation score of -0.193 ± 0.47.

PSYMFITVLYLQTEFGFDDT yielded an amyloid nucleation score of 3.82 ± 0.074.

PSYPSVSRVK: the amyloid nucleation score turned out to be 0.151 ± 0.24.

For the substance PTCGNSPMVRWCSAETFVWG, the amyloid nucleation score turned out to be 3.04 ± 0.13.

As to PTGNQLKKCVDKCGGRSGGE, the amyloid nucleation score result was “inactive”.

Take PVKPDSVGVRSIMGIVFGYR: the amyloid nucleation score was 2.94 ± 0.051.

On to PVRCMIAHNCLIFWLVWTVV, for which the amyloid nucleation score was -0.154 ± 0.25.

PVRGE: the amyloid nucleation score came to 0.089 ± 0.8.

On to PVRRRGNLFIRRLLSFEKKL, for which the amyloid nucleation score result is “inactive”.

PWALTFNHCKIDDTKRGHIV: the amyloid nucleation score was 0.64 ± 0.8.

Turning to PWHDEVVVSNQVYTYMGPSS, the amyloid nucleation score was determined as 0.074 ± 0.3.

Take PWLDIFNVACTSRGSLVWYE: the amyloid nucleation score was -0.855 ± 1.1.

PWWLWVGSMYENYGFAPFWV yielded an amyloid nucleation score of -0.969 ± 0.3.

For the substance PYILRFRRDLRGFRI, the amyloid nucleation score was 0.449 ± 0.56.

Substance PYISWGSTGFVNAGRY showed an amyloid nucleation score of 3.74 ± 0.072.

As to PYLGRFFSCLYTEWDTP, the amyloid nucleation score result was “inactive”.

Substance PYTFQYY returned an amyloid nucleation score of -0.549 ± 0.26.

The substance QACRSTGNSFVLNRYMKERT showed an amyloid nucleation score of 0.215 ± 0.24.

QAPLWENSVSVPRLWWNSLS displayed an amyloid nucleation score of -0.342 ± 1.1.

In the case of QASSGSKDLD, the amyloid nucleation score came to 0.102 ± 0.23.

On to QEMYALACHVLTCCNLRNKR, for which the amyloid nucleation score was determined as 9.866 ± 0.034.

The substance QEVELGMGPKRGETVKEVDL showed an amyloid nucleation score of 0.098 ± 0.22.

Take QFAYTRSSPVKIYLYNNYGA: the amyloid nucleation score was determined as 8.109 ± 0.037.

Turning to QFDWDRVYMFSTLPFCIWWV, the amyloid nucleation score was -0.783 ± 0.35.

On to QFEVNNLTPIGEEGGPKDCP, for which the amyloid nucleation score was 0.759 ± 0.43.

On to QFHFK, for which the amyloid nucleation score came out at 0.036 ± 0.35.

QFSLLTKYTNVHILGSEEFG yielded an amyloid nucleation score of 0.388 ± 0.36.

The substance QFSSLVFAEEKMNPRMCMVR gave an amyloid nucleation score of -0.294 ± 0.2.

As for QGSNRACGLSEDCLFTV, the amyloid nucleation score amounted to 0.282 ± 0.22.

As for QHRMDTDTNYFDKDVGHFIS, the amyloid nucleation score is -0.984 ± 0.32.

The substance QIDYRLIVGRSG registered an amyloid nucleation score of 0.32 ± 0.74.

With QIRAPHGGYVYYAGVATYSN, the amyloid nucleation score was -0.206 ± 1.1.

As to QIVWLHCLFRRFSNGATSDD, the amyloid nucleation score was -0.122 ± 0.23.

As for QKHPGFKYHQNLRLVSLSKR, the amyloid nucleation score was -0.837 ± 0.45.

Turning to QKRRDFVVHCIRELWFYEHD, the amyloid nucleation score entry was “inactive”.

In turn, QKTRLSPVYHVGNSGLSPSV registered an amyloid nucleation score of 0.29 ± 0.77.

With QLFGFGYVLVV, the amyloid nucleation score is -1.12 ± 0.78.

Substance QLGRVSHRVTDRIFWKAYPA yielded an amyloid nucleation score of 0.353 ± 0.35.

In the case of QLNVSLNRLFLCGGSAELPS, the amyloid nucleation score is 7.55 ± 0.076.

Regarding QMAINAGRRRRHAEYGLRNS, the amyloid nucleation score was 0.684 ± 0.57.

Consider QMSLAGRG, for which the amyloid nucleation score entry was “inactive”.

The substance QMVGWSMYWIKVMRISA returned an amyloid nucleation score of 0.105 ± 1.1.

Substance QNIKIW gave an amyloid nucleation score of -1.02 ± 0.55.

In turn, QPAVQGITRRKVCWVIMQNA displayed an amyloid nucleation score of 0.336 ± 0.46.

QRDHWNAALCKVLLLSGLLR showed an amyloid nucleation score of 0.057 ± 0.33.

Regarding QRRQVDSVM, the amyloid nucleation score was 1.27 ± 0.27.

Take QSAFNN: the amyloid nucleation score result is “inactive”.

Substance QSKYVSDPSPPETR registered an amyloid nucleation score of 1.48 ± 0.32.

Take QSRDKYLKFRPSLWATEMTW: the amyloid nucleation score is -0.127 ± 0.31.

QSSNLMGL showed an amyloid nucleation score of -0.338 ± 0.39.

For the substance QSSYVATWVTLNLGCYFDWK, the amyloid nucleation score was 0.284 ± 1.1.

As for QSTYCQRRCVC, the amyloid nucleation score worked out at 0.042 ± 0.63.

Regarding QSVYMFRKNNDFPRGTAGSQ, the amyloid nucleation score is -0.883 ± 1.1.

With QTNGGEGQ, the amyloid nucleation score worked out at 0.705 ± 0.24.

Take QTVTCHNNRYVFRLSTMC: the amyloid nucleation score was determined as 0.71 ± 0.41.

As for QVSFEFNRLMGCMLKMTMMT, the amyloid nucleation score is -0.308 ± 0.49.

As to QWIWSHSNHNSWIPGSGVVD, the amyloid nucleation score is -1.13 ± 0.76.

Turning to QWNMRAAQCTTNS, the amyloid nucleation score stood at 0.722 ± 0.34.

As for QYGHCAPDFGSTLLGISST, the amyloid nucleation score is -0.601 ± 0.39.

Turning to QYVLLTLCVRIIHGSND, the amyloid nucleation score result was “inactive”.

QYVPVLGPACMQLMRYNCAD returned an amyloid nucleation score of -0.177 ± 0.4.

QYYVGYLT: the amyloid nucleation score was -0.738 ± 0.61.

As to RACADGTSEPNAVALCLNAV, the amyloid nucleation score was 0.832 ± 0.43.

As to RADTRFVAMGFGCRNVKPAV, the amyloid nucleation score is -0.296 ± 0.54.

The substance RALLW had an amyloid nucleation score of -0.094 ± 1.

Substance RAQRLP had an amyloid nucleation score of -0.241 ± 0.55.

RARARHDLRGQRKVLRDRRF returned an amyloid nucleation score of 0.849 ± 0.5.

The substance RARGIV yielded an amyloid nucleation score of -0.664 ± 0.55.

With RARIWALGYSLEEIRRGLED, the amyloid nucleation score was 3.19 ± 0.11.

Regarding RAWETNFRVTTLDCNNYSSS, the amyloid nucleation score entry is “inactive”.

With RAWKSPYCLNTRMSTEGHEY, the amyloid nucleation score is 0.348 ± 0.48.

Substance RAYFTSKMCIRQTWTEKILY came in with an amyloid nucleation score of 5.13 ± 0.052.

In the case of RCDLWLSYCQPLNVFLYWLV, the amyloid nucleation score was found to be 0.313 ± 0.65.

RCGASSCNRLGPPMLNNRAM had an amyloid nucleation score of -1.6 ± 0.75.

RCGEVRYPCTDVYILGFRSV registered an amyloid nucleation score of -0.437 ± 0.63.

Substance RCGSHMNLRYISAR yielded an amyloid nucleation score of 4.398 ± 0.04.

The substance RCPRSKLVIMDRASVLEGGR yielded an amyloid nucleation score of 0.559 ± 0.32.

On to RCSDRKRRFSYSNWYGHGYG, for which the amyloid nucleation score is -0.448 ± 0.48.

RCTGVMPV registered an amyloid nucleation score of -0.072 ± 1.1.

For RCVSRTR, the amyloid nucleation score came out at 0.147 ± 1.1.

Turning to RCYVFKLSFGDTQCELFRIT, the amyloid nucleation score was 6.406 ± 0.049.

In turn, RDARNKFCDGLTVGILGACM came in with an amyloid nucleation score of -0.368 ± 0.29.

Regarding RDFVE, the amyloid nucleation score is -0.386 ± 0.56.

Turning to RDHLFCG, the amyloid nucleation score turned out to be 0.654 ± 0.16.

In the case of RDIFILSLLDRMSEGTKRIR, the amyloid nucleation score was 3.86 ± 0.076.

With RDIGKYRMYDLTKVRAITLT, the amyloid nucleation score was -0.353 ± 0.35.

For RDLARTMI, the amyloid nucleation score turned out to be 1.67 ± 0.34.

On to RDMHLGRTEFVARYWELFRY, for which the amyloid nucleation score is -0.473 ± 0.78.

In turn, RDMWKVNHGNTACIGSYRSV yielded an amyloid nucleation score of 0.671 ± 0.35.

RDRRASYLVVASPTAGLHMV displayed an amyloid nucleation score of 3.34 ± 0.078.

Turning to RDSVCMTRLDMGLDCEWVFG, the amyloid nucleation score was found to be 1.57 ± 0.36.

Turning to REAMTCIFDLKYAGLASVWW, the amyloid nucleation score is -0.532 ± 1.

RERVFIGNGWTRLSRARGQA: the amyloid nucleation score was -1.15 ± 0.62.

For REVLWCLPDQGELPGGVTFG, the amyloid nucleation score was determined as 2.44 ± 0.08.

The substance REVTNLYVVGGSDCTLIGGM had an amyloid nucleation score of 3.75 ± 0.097.

RFCGVVLSHSSD returned an amyloid nucleation score of 7.913 ± 0.03.

RFDWVA: the amyloid nucleation score is -0.038 ± 0.45.

In the case of RFFFYGLGMFYIETFYLLWF, the amyloid nucleation score result was “inactive”.

Consider RFFGLAKMRMLVKCQ, for which the amyloid nucleation score was determined as 0.043 ± 0.65.

RFFVYWFVFLCRLNGCVLWT gave an amyloid nucleation score of -0.689 ± 0.4.

For RFGLGINLLIGVRLLCLALL, the amyloid nucleation score is 0.043 ± 1.

For the substance RFGRSQVRAKCRVDDDRWIR, the amyloid nucleation score was determined as 4.63 ± 0.071.

With RFICSAPAVPILIICWS, the amyloid nucleation score was -1.65 ± 0.76.

The substance RFLLVRSCQAISNRGNGLRE gave an amyloid nucleation score of 5.08 ± 0.042.

For RFLSYTSCLEMIVFCGRVQG, the amyloid nucleation score stood at 0.207 ± 0.23.
